assay: soluble on expression in E. coli; label from the status in PepcDB or PDB records

Sequence	soluble on expression in E. coli
MARVVVLGAGIGGLPTAYELKHRLGDRHEVILVSDVDRFTFIPGLVAVALGHNSLERLQVPLETVSRRHGLRWVQGKVQRLAPQEKKIYLPEQALDYDYLVIATGAELAVDLIPGLGIHSHSVCTPAHAVAAQRAWQEFLKEPRDLVVGAAPGASCFGPAYEFLFLAEHALRHHGLRDRVKITFITPEPYVGHLGIGGLANSDQLTRNLIEKRGIETITNAEITAIEPHRILLRDRPVIPFGYSMILPPFRGVPFVRASGLGNEKGFLPLLPTLQHPNYPEIYGVGISVHLPPLEVTPVPVGVPKTGQMTEEMAIAASHNIAVALGELVADPVVPTLDALCFADFGNTGIAYIAAPVIPEPPGENRRLACALQGLWVSWVKAAFERYFLLKMRWGLGVPWFEQWGLRLFFGLSLVRPLQPTVFPEQQPIMKVLEHHHHHH	not soluble
MARYEEVSVSGFEEFHRAVEQHNGKTIFAYFTGSKDAGGKSWCPDCVQAEPVVREGLKHISEGCVFIYCQVGEKPYWKDPNNDFRKNLKVTAVPTLLKYGTPQKLVESECLQANLVEMLFSED	soluble
MASEMIVDHRQKAFELLKVDAEKILKLIRVQMDNLTMPQCPLYEEVLDTQMFGLSREIDFAVRLGLVDEKDGKDLLYTLERELSALHDAFTAK	soluble
MASGAKKLRNVNEVLSAKKPVSILLMGTDTGALGRTFAGRTDSMMVVTINPKTNKTTITSIPRDTAVNIPGYTSYGVSKINAAYAYGKSKTAITTVQKMLNIPIDFYAIINMGGMEKIIDEVGGVTLKPTLSFSYGGYTFKKGVKTHMNGKKALAYSRMRDDDPLGDYGRQTRQRKVIMALLNKSNSISSLLNEDFISSLSKQTQTDLTFNDLTALATNYRKATQYIKTTHLQGTSETIESQSMEVASKSELQRVTNYIRKALGLSHKTTGTIAQLEHHHHHH	soluble
MASIKLKFRPSSVKGKKGVLSYQIIHYRLTRLIKTSYRIMPSEWDDSTGSLLISTQSECKARLLLIRDQTNWEMTRLQGIINDLERTGVEYTIDDIVASFRKIPSVESVFNFMQRCINKLERQKRGRTAEGYTSTMNSFIQFRKNEDLSFEAFDSELMEMYEAYLKEKGLVKNSTSYYMRIWRSVYNLAVEQGYTTDKKPFKHVYTGIDKTVKRAVPFKIIKMIKELDLSFEPQLELARDIFLFSFYTRGMSFIDMAHLKKSNLQNGILTYSRKKTGQRLTILWEELMQEIVDKYKDDTSEYLLPILRYCDINDRKQYKLRAKQIGRGLNKIGLRLELKAPLTFYVARHSWASIAQDRKVSTDIIREGLGHDNEKTTHIYLASISTSQIDRANQIILRGL	not soluble
MASKLRRYIMNTTSLSLTPLLRHSVGFERFNDLFESMRNADDSTYAYPAYDIEKHGEDSYTITMAVPGFQESDLNIMVQNDQLTVSGRIQEKETKESEYLHRSIVTRAFEQTFRLADHMQVTGAEIKNGLLSIGLIREIPEEAKPRIIPIKSISDQESNKKGKTLEPESKKKISN	not soluble
MASKPGERKTQILHTLAEMLEQPHAARITTSALAARMQVSEAALYRHFASKAQMFEGLIEFIETSIFTVVNQIAVSEPYGMGQARKTVAMLLAFAERNRGITRVLTGDALVTEDNRLQERINHINDRIEASLKQCLRVAVSDGALPADANIAAHASLLTHLVLGRWLRYAQSGWRVAPTTHLEEHLRLALG	not soluble
MASRRKRRKVNEESEIPCSPVVIFAHGAGAPSSSDWMIRWKEMLKKTLEAVEVVTFDYPYLADGKKRVAPKAEKLIEFHLNVVKETAAKFPGHPLILVGKSMGSRVSCMVSAVNEDVTVSAVICLGYPLKGAKGAIRDETLLEMGVPVMFVQGSKDPMCPLNKLEAVCNKMKAVTEVHVIDGGDHSFKIGKKHLETKELTQEEVEDVAMKAIAAFVSKSLAQSS	soluble
MASSLHSPGQAFRAALAKENPLQIVGAINANHALLAQRAGYQAIYLSGGGVAAGSLGLPDLGISTLDDVLTDIRRITDVCPLPLLVDADIGFGSSAFNVARTVKSIAKAGAAALHIEDQVGAKRCGHRPNKAIVSKEEMVDRIRAAVDARTDPNFVIMARTDALAVEGLEAALDRAQAYVDAGADMLFPEAITELSMYRRFADVAQVPILANITEFGATPLFTTDELRSAHVAMALYPLSAFRAMNRAAEKVYTVLRQEGTQKNVIDIMQTRNELYESINYYQFEEKLDALYRNKKSLEHHHHHH	soluble
MASSLNEDPEGSRITYVKGDLFACPKTDSLAHCISEDCRMGAGIAVLFKKKFGGVQELLNQQKKSGEVAVLKRDGRYIYYLDWMWSLEHHHHHH	not soluble
MASSSSGGAGGAGGASGAPEVKIHNVYMSNVEEEFARIRGFVEDYPYVAMDTEFPGVVATPLGTFRSKEDFNYQQVFCNVNMLKLIQVGFAMVNDKGELPPTGDVWQFNFNFSFAEDMFSHESVEMLRQAGIDFTLLQNNGIPTAVFGELLTTSGLITDPRITWLTFSSGYDFGYLLKSITLGDLPKEESTFFMCHKTLFPTSFDIKILLRTPNCASAKLKGGLQEVADQLDVKRQGVRHQAGSDALLTAATFFKIKKQFFGDNWNQIAPLICGHMFGLGSSLSLFHSSGSTSRLGDETPQGLIGVPQQA	not soluble
MASSSSSSEHKVFLSFRREDTGRTFVSHLYRSLDQKEIRTYKFENQQAGDGKRISSEVKQAINESRIAVVVISENYVSSVLCLDVLAKIIERLPLIKIETVFYEVDPGDLTRPTGKFADDFRRHEARENRRTVNRWRDALDQLVSITNSNFCSRNWEDDSKMIDDLIIRLINIYFSKYYTPDVDIIAETTVGLDASVLGLMTDIDMKYKLNSLSGSVESGFGLERYALEATSVMDDMSNESPSPTSDDSNGLVGMYRHKKAVYGLLDLESKNQVRTIGIWGFQGVGKTTLAECVFDDISSHFQHYCFLTNANKIYQNRISPSLLKHLTRRRSSEDIFDAIKPSLVNRKVLFVVDGVDATYNEQFNDAMKVTRWLGPGSRIIMTSRFKSSLKFGGAKYEMECLRYEEALQLFSLYAFKKTYPLIGFELFSIRAVHFAGRLPLSLKVLGSFLYDKDEESWKRTLHKLEASQDNDRRYVSNYIGAGEYLPRRQIELEQYVSPDEEEYSPSYIMSL	soluble
MASSTVPVSAAGSANETPEIPDNVGDWLRGVYRFATDRNDFRRNLILNLGLFAAGVWLARNLSDIDLMAPQPGV	not soluble
MASYRVAALYRFTRFEDPAAIQGPLAALCCSLGVKGTLLLAREGINGTIAGEDAAIEAVLAHIRALPGCADLTPKTAWAERMPFYRMKVRLKKEIVTLGEPDLDPTDAGTYVEPADWNALISDPDVLVIDTRNAYEVAVGRFEGAIDPQTASFADFPAWFRDWRKSVEAQRGPEAPLKVAMYCTGGIRCEKSTAFLKAEGVEQVFHLKGGVLDYLEQIPQPESLWRGECFVFDERVSVGHGLVKGDHVLCRGCRMPVSPQDQASPLYVEGVACPACHDQRNEEQKARAAERHRQVLHCEALGVDHVGATLPTKIDLEHHHHHH	not soluble
MATALNPGRTSAPTPEAAPKLRFDARRYLGTPAVRRIKDEVEIELADRAYLPDLNDLKRDWVASVAAPAFRVLARNRATPPRAFASIGTGSGVDALAAIELLGAEIVGITDLFEEVVATAARNVRGNVRPEAGITLHAGAGDLLIPLAPAGVKFDVIYENLPNLPVDDSRKIEADKTSAAFLAPRSEAIPVFITDWLLTMHYLALVQARDALTPDGVVLSTVGARVPLDVLAQMSRAAGLVPRVLTYGWKVQADADDVISTYANWERQGLGPFRFYAADALEAAFANLDPGEAGANAATIEASLAGEQLGAVAAWEAHRSGLRIGHTYVVLQSGLGLEHHHHHH	soluble
MATAPYGVRLLVGAATVAVEETMKLPRTILMYPMTLASQAAHVVMRFQQGLAELVIKGDNTLETLFPPKDEKPEWATFDEDLPDALEGTSIPLLGLSDASEAKNDDRRSDGRFALYSVSDTPETTTASRSADRSTNPKTAKHPKSAAKPTVPTPAVAAELDYPALTLAQLRARLHTLDVPELEALLAYEQATKARAPFQTLLANRITRATAK	not soluble
MATIDLQKKSVKIVLEKKQLTKVTARVGLVLDITGSMRPLYKNGTVQNVVERILAVADQFDDNGLLDVWVYDNEFPRLKPVSEKDFPGYVDREILNNDRLHKFGRNDEPPVMKDVLRNMLRRNRARILLSLFLSMTGAVKSQSNRLIEASSDKPVFWQFVGIGNGNFDFLNKLDTLEGRVIDNTNFLHIEEIDRISDDELYDALLAEFPFWLKEAKEKGIVREQEPPAEKPKKKGFFSRLFSKLEHHHHHH	soluble
MATIKLKFRPSTVQGKAGTLCYQLCHRQENRQITTDMRIFPEWWNETKRELVAVPGNERVLTAYRKRAEKEMRDIREIIRELDCSGETYTLSEILNRYRSLPSEPGFLYYMKKEMETLWENGQYGTSRNYRRALNSFSAFLDGDDIPFSSLDSALACRYESWLWQQKVARNSSSFYMRILRAVYNKAVKQGLAVQTFPFREVYTGVARTSKRAVDEETIRKLQRLDLSGSPALALSRDMFVFSYCARGMAFVDMAYLKKEDVGGGRITYYRHKTGQYLTLRIEPCMVTILERYGRTCPESPYLFPILTDEQPELAYRQYRTGLNYHNRKLKRLGKLLGEPLPLSSYTPRHSWATAARNHDVPIAVISAGMGHSSERTTLIYLDSLDNAIIDNANEKILKGLNDTISM	not soluble
MATLATKKATLVAALKDLQRVTVAFSGGIDSTLVLKMALDVLGRDNVTAVVANSELFTDEEFDKAMSLAEELGANVQGTTLDYLSDDHIKNNTPDSWYYAKKMFYSRLNDIAANNGSAAVLDGMIKNDENDYRPGLKARSEAGARSLLQEADFFKTDVRALAQELGLTNWNKVASCSVSSRFPYGTTLTHDNIAQVMAAEKYLRSLGFPTVRVRFHNDIARIELPEARIGDFLVFNDRVNRQLQSLGFRYVTLDLGGFRSGRMNDTLTKAQLATFA	not soluble
MATLFIADLHLCAEEPAITAGFLRFLAGEARKADALYILGDLFEAWIGDDDPNPLHHQMAAAIKAVSDSGVPCYFIHGNRDFLLGKRFARESGMTLLPEEKVLELYGRRVLIMHGDTLCTDDAGYQAFRAKVHKPWLQTLFLALPLFVRKRIAARMRANSKEANSSKSLAIMDVNQNAVVSAMEKHQVQWLIHGHTHRPAVHELIANQQTAFRVVLGAWHTEGSMVKVTADDVELIHFPF	soluble
MATMARWERIVEGVKSIALIKRKIISRGKRIALLVDGPNILRKELGVHLEDIVEALSSLGNIRVAKVILNQYAPQSLIEAVSNQGFEPVIVAGEIGVKLAVEAMREVYNPNIDIIALATRNTEFVPIILKAKEKGKETAIIGVEPGFSSALKHAADYVIVLESRGELSEEGNIEDIEEGKGEGGRGRRKNDRLDN	soluble
MATPDVSVHMEEVVVVTTPDTAVDGSGVEGVKTVLVTTNLAPHGGDLTEDNMETENAAAAAAAAFTASSQLKEAVLVKMAEEGENLEAEIVYPITCGDSRANLIWRKFVCPGINVKCVQYDEHVISPKEFVHLAGKSTLKDWKRAIRMNGIMLRKIMDSGELDFYQHDKVCSNTCRSTKIDLSGARVSLSSPTSAEYIPLTPAAADVNGSPATITIETCEDPGDWTAAIGDDTFTFWRGLKDAGLLDEVIQEFHQELVETMRGLQQRVQDPPLQLRDAVLLNNIVQNFGMLDLVKKVLASHKCQMDRSREQYARDLAALEQQCDEHRRRAKELKHKSQHLSNVLMTLTPVSLPPPVKRPRLARATSGPAAMASQVLTQSAQLALGPGVPVPQLTSVPLGKVVSTLPSTVLGKGSLQAPPASSPASPLLGGYTVLASSGSTYPSTVEIHPDASSLTVLSTAAVQDGSTVFKVVSPLQLLTLPGLGPTLQNVAQASPGSSTIVTVPAGAAPGPEEHTATIEVAAMAEDHERK	not soluble

From the DeepSol protein solubility set
